Measured values published in US20060265769A1 (BETH ISRAEL DEACONESS MEDICAL CENTER, published 2006).

T1: SHP-2 (UniProt P35235 2-593)
T1 sequence (looked up): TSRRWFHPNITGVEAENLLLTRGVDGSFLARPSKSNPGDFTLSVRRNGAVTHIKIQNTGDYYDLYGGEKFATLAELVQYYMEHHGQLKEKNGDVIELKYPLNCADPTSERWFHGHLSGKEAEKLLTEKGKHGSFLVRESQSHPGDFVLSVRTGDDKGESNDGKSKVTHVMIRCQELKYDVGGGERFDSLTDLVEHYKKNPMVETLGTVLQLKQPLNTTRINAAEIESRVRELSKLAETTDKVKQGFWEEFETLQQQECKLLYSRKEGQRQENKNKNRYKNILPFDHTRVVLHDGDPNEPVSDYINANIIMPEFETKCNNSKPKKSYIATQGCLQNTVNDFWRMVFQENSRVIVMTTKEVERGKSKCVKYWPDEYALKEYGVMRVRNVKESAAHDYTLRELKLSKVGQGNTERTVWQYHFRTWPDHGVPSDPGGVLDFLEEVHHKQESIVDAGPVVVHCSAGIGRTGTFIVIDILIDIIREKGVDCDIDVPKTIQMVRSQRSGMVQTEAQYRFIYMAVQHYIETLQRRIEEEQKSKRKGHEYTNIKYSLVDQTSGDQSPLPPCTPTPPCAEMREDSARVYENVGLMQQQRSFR

B1: Gab2HA (other, not shown: small tags and cut ends)
chain: MSGGGGDDVVCTGWLRKSPPEKKLRRYAWKKRWFILRSGRMSGDPDVLEYYKNEHSKKPLRIINLNLCEQVDAGLTFNKKELQDSFVFDIKTSERTFYLVAETEADMNKWVQSICQICGFNQAEESTDSLRNLSSASHGPRSSPAEFSSSQHLLRERKSSAPSHSSQPTLFTFEPPVSSHMQPTLSTSAPQEYLYLHQCISRRTENARSASFSQGTRQKSDTAVQKLAQSNGHCINGVGGQVHGFYSLPKPSRHNTEFKDSTYDLPRSLASHGHTKSSLTGSETDNEDVYTFKMPSNTLCRELGDLLVDNMDVPTTPLSAYQIPRTFTLDKNHNAMTVATPGDSAIAPPPRPPKPSQAETSQWGSIQQRPPISENSRSVAATIPRRNTLPAMDNSRLHRASSCETYEYPARGSGESASWSAEPPGKTAVGRSNSASSDDNYVPMNPGSSTLLAMERPGDNSQSVYIPMSPGPHHFDPLGYPSTALPIHRGPSRGSEIQPPPVNRNLKPDRKAKPTPLDLRNNTVIDELPFKSPVTKSWSRINSHTFNSSSSQYCRPISTQSITSTDSGDSEENYVPMQNPVSASPVPSGTNSPAPKKSTGSVDYLALDFQPGSPSPHRKPSTSSVTSDEKVDYVQVDKEKTQALQNTMQEWTDVRQSSEPSKGAKL
modifications: tyrosyl phosphorylated upon IL-3 stimulation

Columns and labels:
Gab2HA = molecular target: B1; assay: co-immunoprecipitation and immunoblotting, BaF3 cells
Gab2 = molecular target: T2, Gab2 (mouse, UniProt Q9Z1S8 1-665, tyrosyl phosphorylated upon stimulation (Y604 and Y633 said to be highly phosphorylated)); assay: as above
T2 construct: Scaffolding protein; Endogenous protein in lysates of BaF3, BAC1.2F5 and P210BCR-ABL BaF3 cells; also called p97; p97/Gab2

SHP-2 = molecular target: T1, SHP-2; assay: cell-based or functional assay

Row | binding result (Gab2HA) | binding result (Gab2) | basal c-fos luciferase activity in BaF3 cells (SHP-2) | Binder
1 | no binding | no binding | – | Crk-L (other, UniProt P47941 1-303, looked up) MSSARFDSSDRSAWYMGPVTRQEAQTRLQGQRHGMFLVRDSSTCPGDYVLSVSENSRVSHYIINSLPNRRFKIGDQEFDHLPALLEFYKIHYLDTTTLIEPAPRYPSPPVGSVSAPNLPTAEENLEYVRTLYDFPGNDAEDLPFKKGELLVIIEKPEEQWWSARNKDGRVGMIPVPYVEKLVRSSPHGKHGNRNSNSYGIPEPAHAYAQPQTTTPLPTVASTPGAAINPLPSTQNGPVFAKAIQKRVPCAYDKTALALEVGDIVKVTRMNINGQWEGEVNGRKGLFPFTHVKIFDPQNPDDNE
2 | no binding | no binding | – | Crk (other, UniProt Q64010 2-304, looked up) AGNFDSEERSSWYWGRLSRQEAVALLQGQRHGVFLVRDSSTSPGDYVLSVSENSRVSHYIINSSGPRPPVPPSPAQPPPGVSPSRLRIGDQEFDSLPALLEFYKIHYLDTTTLIEPVARSRQGSGVILRQEEAEYVRALFDFNGNDEEDLPFKKGDILRIRDKPEEQWWNAEDSEGKRGMIPVPYVEKYRPASASVSALIGGNQEGSHPQPLGGPEPGPYAQPSVNTPLPNLQNGPIYARVIQKRVPNAYDKTALALEVGELVKVTKINVSGQWEGECNGKRGHFPFTHVRLLDQQNPDEDFS
3 | no binding | no binding | – | Crk-II (other, UniProt Q64010-1 2-304, looked up) AGNFDSEERSSWYWGRLSRQEAVALLQGQRHGVFLVRDSSTSPGDYVLSVSENSRVSHYIINSSGPRPPVPPSPAQPPPGVSPSRLRIGDQEFDSLPALLEFYKIHYLDTTTLIEPVARSRQGSGVILRQEEAEYVRALFDFNGNDEEDLPFKKGDILRIRDKPEEQWWNAEDSEGKRGMIPVPYVEKYRPASASVSALIGGNQEGSHPQPLGGPEPGPYAQPSVNTPLPNLQNGPIYARVIQKRVPNAYDKTALALEVGELVKVTKINVSGQWEGECNGKRGHFPFTHVRLLDQQNPDEDFS
4 | – | – | ~2 fold | B1
